The results in this text go back to the supplement of paper PMC7125110.

± gives the standard error. This sample holds only a part of the variants without activity.

Sequences and labels used below:
B1: glmS ribozyme (parent)
chain: AUAAAAGCGCCAGAACUACAGAAAUGUAGUUGACGAGGAGGAGGUUUAUCGAAUUUUCGGCGGAUGCCUCCAAA

Holding throughout (details): with glucosamine-6-phosphate
Variants of B1 are the subject of data set [1]. Description: self-cleavage kobs at 40 uM GlcN6P; higher = faster cleavage; RNA array. In a few lines: (§1)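 The measurements used barcoded ribozyme variants on sequenced MiSeq chips, transcribed in situ by E. coli RNA polymerase and tracked at 37 °C with a hybridised Cy3 probe. Glucosamine-6-phosphate, 40 μM to 10 mM in HEPES/KCl/Mg(OAc)2 buffer, was flowed in while tiles were imaged over ~14 h. Baseline-normalised signals, also normalised to non-cleaving reference variants, gave per-tile medians that were fit to one- or two-exponential decays for kobs. kcat and KM resulted from weighted Michaelis–Menten fits across concentrations.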

In data set [2] the parent is B1. Kind of data set: self-cleavage kobs at 10000 uM GlcN6P; higher = faster cleavage; RNA array. The essentials:
as §1

Data set [3] covers variants of B1. Description: self-cleavage kobs at 160 uM GlcN6P; higher = faster cleavage; RNA array. The essentials: as §1
Data set [4] covers variants of B1. Kind of data set: self-cleavage kobs at 640 uM GlcN6P; higher = faster cleavage; RNA array. The essentials:
as §1

Data set [5] covers variants of B1. Description: self-cleavage kobs at 2500 uM GlcN6P; higher = faster cleavage; RNA array. The essentials:
as §1

G29A G32U C34G C50A C61U: in the data set with glucosamine-6-phosphate [1], the “self-cleavage kobs at 40 uM GlcN6P” value was under 1e-05 s⁻¹. In addition, in the data set with glucosamine-6-phosphate [2], the “self-cleavage kobs at 10000 uM GlcN6P” value is under 1e-05 s⁻¹.
Regarding C34G A64G, the “self-cleavage kobs at 40 uM GlcN6P” value with glucosamine-6-phosphate [1] was under 1e-05 s⁻¹. In the data set with glucosamine-6-phosphate [3], the “self-cleavage kobs at 160 uM GlcN6P” value is under 1e-05 s⁻¹. The “self-cleavage kobs at 640 uM GlcN6P” value in the data set with glucosamine-6-phosphate [4] is under 1e-05 s⁻¹. In addition, the “self-cleavage kobs at 2500 uM GlcN6P” value with glucosamine-6-phosphate [5] is under 1e-05 s⁻¹. In addition, the “self-cleavage kobs at 10000 uM GlcN6P” value with glucosamine-6-phosphate [2] is under 1e-05 s⁻¹.
As to G38A G41A G63C, the “self-cleavage kobs at 40 uM GlcN6P” value in the data set with glucosamine-6-phosphate [1] was under 1e-05 s⁻¹.
Consider C11A A12C G38U U69A, for which the “self-cleavage kobs at 40 uM GlcN6P” value in the data set with glucosamine-6-phosphate [1] came to 0.000405 ± 0.00012 s⁻¹. Besides, the “self-cleavage kobs at 10000 uM GlcN6P” value with glucosamine-6-phosphate [2] came out at 4.3e-05 ± 2e-05 s⁻¹.
The matching figures for C8A C34U U47C C67U: under 1e-05 s⁻¹ and under 1e-05 s⁻¹.
A48C G60U: the “self-cleavage kobs at 40 uM GlcN6P” value with glucosamine-6-phosphate [1] was under 1e-05 s⁻¹. The “self-cleavage kobs at 160 uM GlcN6P” value with glucosamine-6-phosphate [3] was under 1e-05 s⁻¹. In the data set with glucosamine-6-phosphate [4], the “self-cleavage kobs at 640 uM GlcN6P” value is under 1e-05 s⁻¹. The “self-cleavage kobs at 2500 uM GlcN6P” value in the data set with glucosamine-6-phosphate [5] is under 1e-05 s⁻¹. The “self-cleavage kobs at 10000 uM GlcN6P” value with glucosamine-6-phosphate [2] is under 1e-05 s⁻¹.
On to A33C G63C, for which the “self-cleavage kobs at 40 uM GlcN6P” value in the data set with glucosamine-6-phosphate [1] was under 1e-05 s⁻¹. Besides, the “self-cleavage kobs at 160 uM GlcN6P” value with glucosamine-6-phosphate [3] was under 1e-05 s⁻¹. Further, the “self-cleavage kobs at 2500 uM GlcN6P” value with glucosamine-6-phosphate [5] is under 1e-05 s⁻¹. Moreover, the “self-cleavage kobs at 10000 uM GlcN6P” value with glucosamine-6-phosphate [2] was under 1e-05 s⁻¹.
For the variant C10G U47G C70U C71G, the “self-cleavage kobs at 40 uM GlcN6P” value with glucosamine-6-phosphate [1] is under 1e-05 s⁻¹. Further, the “self-cleavage kobs at 640 uM GlcN6P” value with glucosamine-6-phosphate [4] was 0.00148 ± 0.00064 s⁻¹.
Turning to A36G U45G G51U U54C U56A C68A, in the data set with glucosamine-6-phosphate [1], the “self-cleavage kobs at 40 uM GlcN6P” value is under 1e-05 s⁻¹.
Turning to A52C U55A, in the data set with glucosamine-6-phosphate [1], the “self-cleavage kobs at 40 uM GlcN6P” value was under 1e-05 s⁻¹. Further, the “self-cleavage kobs at 10000 uM GlcN6P” value with glucosamine-6-phosphate [2] was 3.4e-05 ± 1.3e-05 s⁻¹.
Regarding A15U G59C, the “self-cleavage kobs at 40 uM GlcN6P” value with glucosamine-6-phosphate [1] is under 1e-05 s⁻¹. The “self-cleavage kobs at 160 uM GlcN6P” value with glucosamine-6-phosphate [3] was under 1e-05 s⁻¹. Also, in the data set with glucosamine-6-phosphate [4], the “self-cleavage kobs at 640 uM GlcN6P” value was under 1e-05 s⁻¹. Moreover, in the data set with glucosamine-6-phosphate [5], the “self-cleavage kobs at 2500 uM GlcN6P” value is under 1e-05 s⁻¹. Also, in the data set with glucosamine-6-phosphate [2], the “self-cleavage kobs at 10000 uM GlcN6P” value is under 1e-05 s⁻¹.
For G32A U47G U57G, the “self-cleavage kobs at 40 uM GlcN6P” value with glucosamine-6-phosphate [1] was under 1e-05 s⁻¹.
For the variant G29U A33U G38C G40A, the “self-cleavage kobs at 40 uM GlcN6P” value with glucosamine-6-phosphate [1] is under 1e-05 s⁻¹.
Turning to A36G U56A, the “self-cleavage kobs at 40 uM GlcN6P” value with glucosamine-6-phosphate [1] was under 1e-05 s⁻¹. The “self-cleavage kobs at 640 uM GlcN6P” value in the data set with glucosamine-6-phosphate [4] is under 1e-05 s⁻¹.
Take A15U A39C G41C: the “self-cleavage kobs at 40 uM GlcN6P” value with glucosamine-6-phosphate [1] is under 1e-05 s⁻¹. For the same variant, the “self-cleavage kobs at 640 uM GlcN6P” value with glucosamine-6-phosphate [4] is under 1e-05 s⁻¹. In addition, the “self-cleavage kobs at 2500 uM GlcN6P” value in the data set with glucosamine-6-phosphate [5] was under 1e-05 s⁻¹.
Take C10A G29A C67G: the “self-cleavage kobs at 40 uM GlcN6P” value with glucosamine-6-phosphate [1] is 0.000103 ± 3.7e-05 s⁻¹. Moreover, in the data set with glucosamine-6-phosphate [2], the “self-cleavage kobs at 10000 uM GlcN6P” value came to 0.000102 ± 3e-05 s⁻¹.
For the variant A14C C68G U69A, the “self-cleavage kobs at 40 uM GlcN6P” value with glucosamine-6-phosphate [1] is under 1e-05 s⁻¹.
Consider G51C U57C C70G, for which, in the data set with glucosamine-6-phosphate [1], the “self-cleavage kobs at 40 uM GlcN6P” value is under 1e-05 s⁻¹.
With G41A G43U A53G C71G, in the data set with glucosamine-6-phosphate [1], the “self-cleavage kobs at 40 uM GlcN6P” value was under 1e-05 s⁻¹. Further, the “self-cleavage kobs at 2500 uM GlcN6P” value in the data set with glucosamine-6-phosphate [5] was under 1e-05 s⁻¹.
Consider G35C A36G G37A A39G U65A, for which the “self-cleavage kobs at 40 uM GlcN6P” value with glucosamine-6-phosphate [1] was under 1e-05 s⁻¹. In addition, in the data set with glucosamine-6-phosphate [2], the “self-cleavage kobs at 10000 uM GlcN6P” value was under 1e-05 s⁻¹.
For the variant C8G G41A, in the data set with glucosamine-6-phosphate [1], the “self-cleavage kobs at 40 uM GlcN6P” value is under 1e-05 s⁻¹. The “self-cleavage kobs at 160 uM GlcN6P” value with glucosamine-6-phosphate [3] was under 1e-05 s⁻¹. Besides, the “self-cleavage kobs at 2500 uM GlcN6P” value with glucosamine-6-phosphate [5] is under 1e-05 s⁻¹. Also, in the data set with glucosamine-6-phosphate [2], the “self-cleavage kobs at 10000 uM GlcN6P” value was under 1e-05 s⁻¹.
Regarding A52G G62C, the “self-cleavage kobs at 40 uM GlcN6P” value with glucosamine-6-phosphate [1] was under 1e-05 s⁻¹. The “self-cleavage kobs at 160 uM GlcN6P” value in the data set with glucosamine-6-phosphate [3] was under 1e-05 s⁻¹. Moreover, the “self-cleavage kobs at 640 uM GlcN6P” value with glucosamine-6-phosphate [4] was under 1e-05 s⁻¹. In addition, the “self-cleavage kobs at 10000 uM GlcN6P” value in the data set with glucosamine-6-phosphate [2] was under 1e-05 s⁻¹.
As to G7A G13U U69G C71A, in the data set with glucosamine-6-phosphate [1], the “self-cleavage kobs at 40 uM GlcN6P” value was determined as 0.00031 ± 7.3e-05 s⁻¹. For the same variant, in the data set with glucosamine-6-phosphate [2], the “self-cleavage kobs at 10000 uM GlcN6P” value was 0.000516 ± 0.00016 s⁻¹.
Regarding C34A A39G A48U C68A, the “self-cleavage kobs at 40 uM GlcN6P” value with glucosamine-6-phosphate [1] was under 1e-05 s⁻¹. In the data set with glucosamine-6-phosphate [3], the “self-cleavage kobs at 160 uM GlcN6P” value was under 1e-05 s⁻¹. The “self-cleavage kobs at 2500 uM GlcN6P” value with glucosamine-6-phosphate [5] was under 1e-05 s⁻¹. Also, the “self-cleavage kobs at 10000 uM GlcN6P” value in the data set with glucosamine-6-phosphate [2] is under 1e-05 s⁻¹.
On to G13A A15C A33U G35A C58A, for which, in the data set with glucosamine-6-phosphate [1], the “self-cleavage kobs at 40 uM GlcN6P” value is under 1e-05 s⁻¹.
As to G7A A48C, the “self-cleavage kobs at 40 uM GlcN6P” value with glucosamine-6-phosphate [1] was under 1e-05 s⁻¹. Moreover, in the data set with glucosamine-6-phosphate [3], the “self-cleavage kobs at 160 uM GlcN6P” value was under 1e-05 s⁻¹. For the same variant, the “self-cleavage kobs at 640 uM GlcN6P” value with glucosamine-6-phosphate [4] was under 1e-05 s⁻¹. For the same variant, the “self-cleavage kobs at 10000 uM GlcN6P” value in the data set with glucosamine-6-phosphate [2] is under 1e-05 s⁻¹.
